According to article PMC1807962 (Nucleic Acids Research, 2007):
“And” between values parts separate entries of the source, which are not always exact repeats. Equal entries are not always repeated.

Experiments:
Test in all cases: SEC
[1] = target: Sso MCM AAA+ core domain (Sulfolobus solfataricus)
[2] = target: Sso MCM ▵A/HTH (lacking both the A domain and the HTH domain) (Sulfolobus solfataricus)
[3] = target: Sso MCM ▵A (lacking the N-terminal A domain) (Sulfolobus solfataricus)
[4] = target: Sso MCM C-half (C-terminal half, AAA+ and HTH domains) (Sulfolobus solfataricus)
SEC = target: the molecule itself

## Sso MCM AAA+ core domain (domain or fragment)
[1]
  stoichiometry N: 2

## Sso MCM ▵A/HTH (lacking both the A domain and the HTH domain) (domain or fragment)
[2]
  stoichiometry N: 6

## Sso MCM ▵A (lacking the N-terminal A domain) (domain or fragment)
[3]
  stoichiometry N: 6

## Sso MCM C-half (C-terminal half, AAA+ and HTH domains) (domain or fragment)
[4]
  stoichiometry N: 2

B1: Sulfolobus solfataricus MCM, full-length, wild-type (natural protein)
chain: MEIPSKQIDYRDVFIEFLTTFKGNNNQNKYIERINELVAYRKKSLIIEFSDVLSFNENLAYEIINNTKIILPILEGALYDHILQLDPTYQRDIEKVHVRIVGIPRVIELRKIRSTDIGKLITIDGILVKVTPVKERIYKATYKHIHPDCMQEFEWPEDEEMPEVLEMPTICPKCGKPGQFRLIPEKTKLIDWQKAVIQERPEEVPSGQLPRQLEIILEDDLVDSARPGDRVKVTGILDIKQDSPVKRGSRAVFDIYMKVSSIEVSQKVLDEVIISEEDEKKIKDLAKDPWIRDRIISSIAPSIYGHWELKEALALALFGGVPKVLEDTRIRGDIHILIIGDPGTAKSQMLQFISRVAPRAVYTTGKGSTAAGLTAAVVREKGTGEYYLEAGALVLADGGIAVIDEIDKMRDEDRVAIHEAMEQQTVSIAKAGIVAKLNARAAVIAAGNPKFGRYISERPVSDNINLPPTILSRFDLIFILKDQPGEQDRELANYILDVHSGKSTKNIIDIDTLRKYIAYARKYVTPKITSEAKNLITDFFVEMRKKSSETPDSPILITPRQLEALIRISEAYAKMALKAEVTREDAERAINIMRLFLESVGVDMESGKIDIDTIMTGKPKSAREKMMKIIEIIDSLAVSSECAKVKDILKEAQQVGIEKSNIEKLLTDMRKSGIIYEAKPECYKKV
SEC
  stoichiometry N: ≤ 12 and 6
